What was measured:
Test in all cases: cell ELISA: soluble GPVI-Fc (0.45-1000 nM) competing with GPVI-U937 cells for 100 nM scFv
scFv clone A10 = molecular target: T1, scFv clone A10
T1 construct: human scFv from a phage display library; detected through an HA tag, purified through a polyHis tail

scFv clone B4 = molecular target: T2, scFv clone B4
T2 construct: human scFv from a phage display library

scFv clone C3 = molecular target: T3, scFv clone C3
T3 construct: human scFv from a phage display library

B1: soluble human GPVI-Fc (extracellular domain of GPVI fused to Fc; hGPVI-human IgG1Fc) (Fc fusion)
chain: QSGPLPKPSLQALPSSLVPLEKPVTLRCQGPPGVDLYRLEKLSSSRYQDQAVLFIPAMKRSLAGRYRCSYQNGSLWSLPSDQLELVATGVFAKPSLSAQPGPAVSSGGDVTLQCQTRYGFDQFALYKEGDPAPYKNPERWYRASFPIITVTAAHSGTYRCYSFSSRDPYLWSAPSDPLELVVTGTSVTPSRLPTEPPSSVAEFSEATAELTVSFTNKVFTTETSRSITTSPKESDSPAGPARQYYTKGN
notes: also called hGPVI-hIgG1Fc; hrGPVI; not shown: human IgG1 Fc
B1 was tested, and the IC50 (scFv clone A10) was 4.5 nM, the IC50 (scFv clone B4) was 5 nM and the IC50 (scFv clone C3) was 38 nM.

Source: patent publication US6989144
